The values that follow are results of earlier work, collected in article PMC13681993.

The data set deals with GAB1 pY627 (Homo sapiens) (UniProt Q13480). The data set is described as follows: fluorescence polarization. On the technique in general: In fluorescence polarisation assays a small probe gives low polarisation when free and higher when bound to something large.

On to PTPN11 N-SH2 (from UniProt Q06124), for which the Kd (as a rule, the free concentration of one partner at which half of the binding sites on the other are occupied at equilibrium, for simple one-to-one binding) is 287 nM.
